According to US20150299314A1 (TORAY INDUSTRIES, published 2015):

T1: CAPRIN-1 protein expressed on the cell surface of human cancer cells (human, UniProt Q14444 2-709)
T1 sequence (looked up): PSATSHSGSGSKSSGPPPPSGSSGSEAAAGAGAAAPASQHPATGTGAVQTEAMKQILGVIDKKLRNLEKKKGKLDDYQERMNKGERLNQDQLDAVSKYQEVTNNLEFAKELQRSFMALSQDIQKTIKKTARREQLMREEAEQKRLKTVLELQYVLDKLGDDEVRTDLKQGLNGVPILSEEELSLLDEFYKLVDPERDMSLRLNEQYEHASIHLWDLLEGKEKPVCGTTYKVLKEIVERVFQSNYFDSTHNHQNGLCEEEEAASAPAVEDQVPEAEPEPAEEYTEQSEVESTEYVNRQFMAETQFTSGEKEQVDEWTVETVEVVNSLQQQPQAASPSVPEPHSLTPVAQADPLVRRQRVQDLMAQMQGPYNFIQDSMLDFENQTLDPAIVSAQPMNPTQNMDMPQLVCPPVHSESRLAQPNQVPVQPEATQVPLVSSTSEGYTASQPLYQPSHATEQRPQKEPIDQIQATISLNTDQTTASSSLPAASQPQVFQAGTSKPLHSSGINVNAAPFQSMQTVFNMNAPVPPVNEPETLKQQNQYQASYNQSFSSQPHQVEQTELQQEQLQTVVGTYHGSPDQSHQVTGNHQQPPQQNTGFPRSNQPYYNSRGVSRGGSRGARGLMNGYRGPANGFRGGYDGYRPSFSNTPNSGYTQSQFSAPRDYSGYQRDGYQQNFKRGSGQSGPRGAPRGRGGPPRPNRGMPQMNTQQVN


Target: T1, CAPRIN-1 protein expressed on the cell …
Test: cell-based or functional assay

Row | Binder | ADCC activity on TGBC14TKB, method as in Example 12 | ADCC activity (cytotoxicity, 51Cr release) on TGBC14TKB, antibody 5 ug/mL, human NK cells | cytotoxicity (ADCC, 51Cr release) on TGBC14TKB, human NK cells
1 | human-mouse chimeric anti-CAPRIN-1 antibody #28 (antibody, human IgG1, kappa, V domains shown) VH: GPDLVKPGASVKISCKASGYSFTAYYMHWVKQSHGKSLEWIGRVNPNNGGTTYNQKFKGKAILTVDKSSSTAYMELRSLTFEDSAVYYCARRIYYGYFDYWGQGTTVTVSS VL: AFFAVSLGQRATISCKASQSVDYDGDSYMNWYQQKPGQPPKLLIYVASNLESGVPARFSGSGSGTDFTLNIHPVEEEDAATYYCQQSNEDPYTFGGGTKLEIKQ | ≥ 20% | – | –
2 | human-mouse chimeric anti-CAPRIN-1 antibody #23 (antibody, human IgG1, kappa, V domains shown) VH: GGGLVKPGGSLKLSCAASGFTFSSYGMSWVRQTPEKRLEWVATISSGGSYTYYPDSVKGRFTISRDNAKNTLYLQMSSLRSEDTAMYYCASLASYYFDYWGQGTTLTVSS VL: GARCDVQMIQSPSSLSASLGDIVTMTCQASQGTSINLNWFQQKPGKAPKLLIYGASSLEDGVPSRFSGSCFGTDFTLTISSLEDEDMATYFCLQHSYLPPLTFGAGTKLELKR | ≥ 20% | – | –
3 | human-mouse chimeric anti-CAPRIN-1 antibody #24 (antibody, human IgG1, kappa, V domains shown) VH: GGGLVKPGGSLKLSCAASGFTFSSYGMSWVRQTPEKRLEWVATISSGGSYTYYPDSVKGRFTISRDNAKNTLYLQMSSLRSEDTAMYYCASLASYYFDYWGQGTTLTVSS VL: not shown | ≥ 20% | – | –
4 | human-mouse chimeric anti-CAPRIN-1 antibody #34 (antibody, human IgG1, kappa, V domains shown) VH: GAELVRPGTSVKVSCKASVYAFTNYLIEWVKQRPGQGLEWIGVINPKSGGTKYNEKFRGKATLTADKSSSTAYMQLSSLTSGDSAVYFCAITGTDYWGQGTTLTVSS VL: QGTRCDIQMTQTTSSLSASLGDRVTISCSASQGINNYLNWYQQKPDGTVKLLIYYTSSLRSGVPSRFSGSGSGTDYSLTISNLEPEDVATYYCQQYSKLPRTFGGGTKLEIKR | – | ≥ 20% | –
5 | mouse monoclonal antibody #12 (antibody, V domains shown, mouse hybridoma antibody; also called anti-CAPRIN-1 mouse monoclonal antibody #12; anti-CAPRIN-1 monoclonal antibody #12) VH: EVQLHQFGAELVKPGASVKISCKASGYTFTDYNMDWVKQSHGKSLEWIGDINPNYDSTSYNQKFKGKATLTVDKSSSTAYMELRSLTSEDTAVYYCARSRSYDYEGFAYWGQGTLVTVSA VL: DIQMTQSPASLSASVGETVTITCRASGNIHNYLAWYQQKQGKSPQLLVYNAKTLADGVPSRFSGSGSGTQYSLKINSLQPEDFGSYYCQHFWSTLTFGAGTKLELKR | – | – | ≥ 15%
6 | human-mouse chimeric anti-CAPRIN-1 antibody #25 (antibody, human IgG1, kappa, V domains shown) VH: GPGLVQPSQSLSITCTVSGFSLTTYDLHWVRQSPGKGLEWLGVIWSGGSTDYNAAFISRLSISKDNSKSQVFFKMNSLQANDTAIYYCARNYGYSAWFAYWGQGTLVTVSA VL: DVLMTQTPLSLPVSLGDQASISCRSSQSIVHSNGNTYLEWYLQKPGQSPKLLIYKVSNRFSGVPDRFSGSGSGTDFTLKISRVEAEDLGVYYCFQGSHVPLTFGAGTKLELKR | ≥ 20% | – | –
7 | human-mouse chimeric anti-CAPRIN-1 antibody #27 (antibody, human IgG1, kappa, V domains shown) VH: GGGLVQPGGSMRLSCVASGFTFSNSWFNWVRQSPEKGLEWVAEIRLTSDNYAIYYAESVKGRFTISRDDSKSSVYLQMNNLRAEDTGIYYCTRPETARATFAYWGQGTTVTVSS VL: DVLMTQTPLSLPVSLGDQASISCRSSQSIVHSNGNTYLEWYLQKPGQSPKVLIYKVFNRFSGVPDRFSGSGSGTDFTLKISRVEAEDLGVYYCFQGSHVPRTFGGGTKLNQTG | ≥ 20% | – | –
8 | human-mouse chimeric anti-CAPRIN-1 antibody #30 (antibody) heavy: not shown light: DVQITQSPSYLAASPGETITINCRASKSISKYLAWYQEKPGKTNKLLIYSGSTLQSGIPSRFSGSGSGTDFTLTISSLEPEDFAMYYCQQHNEYPYTFGGGTKLEIKRTVAAPSVFIFPPSDEQLKSGTASVVCLLNNFYPREAKVQWKVDNALQSGNSQESVTEQDSKDSTYSLSSTLTLSKADYEKHKVYACEVTHQGLSSPVTKSFNRGEC | – | ≥ 20% | –
9 | human-mouse chimeric anti-CAPRIN-1 antibody #31 (antibody, human IgG1, kappa) heavy: not shown light: DVQITQSPSYLAASPGETITINCRASKSISKYLAWYQEKPGKTNKLLIYSGSTLQSGIPSRFSGSGSGTDFTLTISSLEPEDFAMYYCQQHNEYPWTFGGGTKLEIKRTVAAPSVFIFPPSDEQLKSGTASVVCLLNNFYPREAKVQWKVDNALQSGNSQESVTEQDSKDSTYSLSSTLTLSKADYEKHKVYACEVTHQGLSSPVTKSFNRGEC | – | ≥ 20% | –
10 | human-mouse chimeric anti-CAPRIN-1 antibody #29 (antibody, human IgG1, kappa) heavy: not shown light: GTCGDIVMSQSPSSLAVSAGEKVTMSCKSSQSLLNSRTRKNYLAWVQHKPGQSPRLLIYWASTRESGVPDRFTGSGSGTDFTLTISSVQAEDLAVYYCRQSYNLVTFGAGPSTVAAPSVFIFPPSDEQLKSGTASVVCLLNNFYPREAKVQWKVDNALQSGNSQESVTEQDSKDSTYSLSSTLTLSKADYEKHKVYACEVTHQGLSSPVTKSFNRGEC | ≥ 20% | – | –
11 | mouse monoclonal antibody #8 (antibody, V domains shown, mouse hybridoma antibody; also called anti-CAPRIN-1 mouse monoclonal antibody #8; anti-CAPRIN-1 monoclonal antibody #8) VH: GGGLVKPGGSLKLSCAASGFAFSSYDMSWIRQTPEKRLEWVAYISSGAGSTYYPDTVKGRFTVSRDNAKNTLYLQMSSLKSEDTAMYYCARHFYRFDYWGQGTTVTVSS VL: SIVMTQTPKFLLVSAGDRITITCKASQSVSNDVAWYQQKPGQSPKLLIYYASNRYTGVPDRFTGSGYGTDFTFTISTVQAEDLAVYFCQQDDRFPLTFGAGPS | – | – | ≥ 15%
12 | human-chicken chimeric antibody #2 (antibody, human IgG1, kappa, V domains shown) VH: AVTLDESGGGLQTPGGGLSLVCKASGFTFSSFDMGWVRQAPGKGLEFVAQINDAGSRTWYATAVKGRATISRDNGQTTVRLQLNNLRAEDTGTYYCTRGSGYVGAGAIDAWGHGTEVIVSA VL: AALTQPSSVSANPGETVKITCSGGSGYYGWYQQQKSPGSAPVTVIYQNDKRPSDIPSRFSGSGSGSTNTLTITGVQAEDEAVYFCGRYDSTDSGIFGAGTTLTVLT | – | – | ≥ 15%
13 | human-mouse chimeric anti-CAPRIN-1 antibody #26 (antibody, human IgG1, kappa) heavy: not shown light: PASSSDVLMTQTPLSLPVRLGDQSSISCRSSQSIVHSNGNTYLEWYLQKPGQSPKLLIYKVSNRFSGVPDRFSGSGSGTDFTLKISRVEPEDLGVYYCFQGSHVPYTSEGDQAEIKLATVAAPSVFIFPPSDEQLKSGTASVVCLLNNFYPREAKVQWKVDNALQSGNSQESVTEQDSKDSTYSLSSTLTLSKADYEKHKVYACEVTHQGLSSPVTKSFNRGEC | ≥ 20% | – | –
14 | human-mouse chimeric anti-CAPRIN-1 antibody #36 (antibody, human IgG1, kappa) heavy: not shown light: QDELSNPVTSGESVSISCRSSKSLLYKDGKTYLNWFLQRPGQSPQLLIYLMSTRASGVSDRFSGSGSGTDFTLEISRVKAEDVGVYYCQQLVEDPLTFGAGTKLELKRTVAAPSVFIFPPSDEQLKSGTASVVCLLNNFYPREAKVQWKVDNALQSGNSQESVTEQDSKDSTYSLSSTLTLSKADYEKHKVYACEVTHQGLSSPVTKSFNRGEC | – | ≥ 20% | –

Target: T1, CAPRIN-1 protein expressed on the cell …
Test: flow cytometry, TGBC14TKB cells, culture supernatant, isotype control antibody as control
Procedure: Subsequently, a gallbladder cell line TGBC14TKB, which was confirmed to express a CAPRIN-1 gene, was investigated for whether or not a CAPRIN-1 protein is expressed on the surfaces of these cells. 1×10⁶ cells of TGBC14TKB were centrifuged with a 1.5-mL micro centrifugation tube. To the cells was added the culture supernatant (100 μL) containing any of anti-CAPRIN-1 mouse monoclonal antibodies #1 to #22 reacting to cancer cell surface produced in Example 4 and anti-CAPRIN-1 mouse-chicken chimeric antibodies #1 to #3 produced in the above (2), followed by being left to stand on ice for 1 hour. After washing with PBS, the cells were suspended in a FITC-labeled goat anti-mouse IgG antibody (manufactured by life technologies) diluted by 500-fold with PBS containing 0.1% FBS, followed by being left to stand on ice for 1 hour. After washing with PBS, the fluorescence intensity was measured with FACS Calibur available from Becton, Dickinson and Company. Separately, as a control, the same procedure as in above was performed using an iso-type control antibody, instead of the culture supernatants containing the anti-CAPRIN-1 mouse monoclonal antibodies #1 to #22 and the mouse-chicken chimeric antibodies #1 to #3. As a result, the fluorescence intensity in the cells to which any of the monoclonal antibodies #1 to #22 and the mouse-chicken chimeric antibodies #1 to #3 was added was 20% or more higher than that in the control in every case. Specifically, in the case of using mouse-chicken chimeric antibody #1, the fluorescence intensity was enhanced by 200% or more. […] The rate of increase in the fluorescence intensity is represented by the rate of increase in the mean fluorescence intensity (MFI value) in each cell and is calculated by the following calculation formula: […]

Row | Binder | rate of increase in mean fluorescence intensity over control
15 | mouse-chicken chimeric antibody #3 (antibody, mouse IgG1, V domains shown, also called anti-CAPRIN-1 mouse-chicken chimeric antibody #3) VH: AVTLDESGGGLQTPGGALSLVCKASGFTFSGYDMLWVRQAPGKGLEWVAGIGSTGGGTDYGAAVKGRATISRDNGQSTVRLQLNNLRAEDTATYYCAKVAGGCNSGYCRDSPGSIDAWGHGTEVIVS VL: AVTQQPASVSANPGETVKITCSGGGSRNYYGWYQQKSPGSVPVTVIYYDDQRPSNIPSRFSGALSGSTSTLTITGVQADDEAVYFCGSADSNTYEGSFGAGTTLTVL | ≥ 20%
16 | mouse-chicken chimeric antibody #2 (antibody, mouse IgG1, V domains shown, also called anti-CAPRIN-1 mouse-chicken chimeric antibody #2) VH: AVTLDESGGGLQTPGGGLSLVCKASGFTFSSFDMGWVRQAPGKGLEFVAQINDAGSRTWYATAVKGRATISRDNGQTTVRLQLNNLRAEDTGTYYCTRGSGYVGAGAIDAWGHGTEVIVS VL: AALTQPSSVSANPGETVKITCSGGSGYYGWYQQQKSPGSAPVTVIYQNDKRPSDIPSRFSGSGSGSTNTLTITGVQAEDEAVYFCGRYDSTDSGIFGAGTTLTVL | ≥ 20%
17 | mouse monoclonal antibody #12 (antibody, V domains shown, mouse hybridoma antibody; also called anti-CAPRIN-1 mouse monoclonal antibody #12; anti-CAPRIN-1 monoclonal antibody #12) VH: EVQLHQFGAELVKPGASVKISCKASGYTFTDYNMDWVKQSHGKSLEWIGDINPNYDSTSYNQKFKGKATLTVDKSSSTAYMELRSLTSEDTAVYYCARSRSYDYEGFAYWGQGTLVTVSA VL: DIQMTQSPASLSASVGETVTITCRASGNIHNYLAWYQQKQGKSPQLLVYNAKTLADGVPSRFSGSGSGTQYSLKINSLQPEDFGSYYCQHFWSTLTFGAGTKLELKR | ≥ 20%
18 | mouse monoclonal antibody #8 (antibody, V domains shown, mouse hybridoma antibody; also called anti-CAPRIN-1 mouse monoclonal antibody #8; anti-CAPRIN-1 monoclonal antibody #8) VH: GGGLVKPGGSLKLSCAASGFAFSSYDMSWIRQTPEKRLEWVAYISSGAGSTYYPDTVKGRFTVSRDNAKNTLYLQMSSLKSEDTAMYYCARHFYRFDYWGQGTTVTVSS VL: SIVMTQTPKFLLVSAGDRITITCKASQSVSNDVAWYQQKPGQSPKLLIYYASNRYTGVPDRFTGSGYGTDFTFTISTVQAEDLAVYFCQQDDRFPLTFGAGPS | ≥ 20%
